Experimental data from publication PMC5862951.

Target: His6-tagged rat SLFN13 N′-domain, residues 14–353 (crystallised rSLFN13_(14–353)) (rat) (UniProt Q5U311)
Assay: right-angle light scattering (RALS) of eluted protein; purified protein in solution; elution with RALS detection; conditions not shown (Supplementary Fig. 2a)

stoichiometry N: 2
Substance: His6-tagged rat SLFN13 N′-domain, residues 14–353 (crystallised rSLFN13_(14–353)) (from UniProt Q5U311 14-353) (domain or fragment)
